Literature values in US7897835B2, “Expression vectors pSSA-K and pSSA-H for expression of SOD and APX in plants to provide stress tolerance” (Korea Research Institute of Bioscience and Biotechnology, priority 2004, dated 2011).

Tested on: tobacco protoplast
Conditions: transient assay with GUS protein

B1: SWPA2 promoter: oxidative stress inducible peroxidase promoter isolated from sweetpotato (Ipomoea batatas), SEQ. ID. No 15 (nucleic acid)
DNA: AAGCTTCCATGATCAGATCGATAATACCAAATGGTACCACCTAACTAGGTGATATATATTATGTATGTCATTATTTTAAACTGTATTACAAAGACTATTTTTTCATTAATTGGTACAAAGAAAAATTAAACAGAAAAGAAAGGAAAAAATGACTCACCACCTAGCACCTAGACACCTAGACACCAAGTACCCAAACCCTCTATTTTCAACATCTATTTTCAGATGTAAATATGAGTTGGACGAAGAAGGTGTTAGCAATTATTTGATTAATCTTGCTACGATAATTATGATCCACTCACTTAGTCATTTTTTTCAGACCAAGACAACTAGCTTGAGTTTTTTATTGTATGTGGTCGGAACGTTTTTTGTAATTAAAAAAATAAAAGTTGCATCATTATATATGGTAGATTAAGTAATTGATCAATCAACGTTTAATTTTGCATTTATCGGCAAGGTGGAGGTTCCAACTTCCAGTCGAACTTAGAGAGTCATTGGAGACCTTGACCAGTTAACTAGCGGTGTCGAAAACCTGCACAACTTGAGATTTAATTGCATACCTTTTATATATGACGCGTTTTATTTTTTTTTCCTAGAAAATAATTTGGAAGAAAATAAGAATATGTATTCTGTGAAAGCTAGGCCAAAACGAATGTCTTTTCGTCGTTTTCGTTAAAGGTTTAGATCATATTTCATCTGGTCCAACACTCAAACTTGTATAATGGACGAATTATTAGTCATTTTAGACCTACCGGCTAGCGCGACTTTTTTGTTTTCCATAAAGATTCGATAATTGCATGGCCAGATGCAAAGTTTGAAATTTAATGTTTGCCAAATCCTATCATACACCACAACACATGTCTCAGGGCCAAGTGGCACCAGCAAACATTCCTGTCATAATTAATTTTTTTAATGAGAAGGAGGAAACTCACAGCTATTACTCGAAGGTATATAATATTGAGTAAATCTTACTTTGTGATTCTAGTTGACAAAACACCGCAAGATAAACTATACTAAGTTCAAATCACCTCACCGGGTTGGCTCAGATTGGTTTTTTCAATACAAGAGGGGGTGTGAACTCCCGTGCCGACCTCTTTTGAGGGACAATAATGTACGGTCACGCCAACCTAGCTTGATTTTTTCTGACAAATATATTACTACATATATTACACGGTCAAATAATTAATCAAAAAATAAAAAAAGACCCCAATTAAAGTCCCCAACCACTCTCAAATATTCTATTTAAGGGAAACCTTAGAGGCAATTCATGCATCCTCAACCCCTTCTTCTTCATTTTCTTAATCTTACATTTTCCTTTGACCCTCGAG
modifications: Ipomoea batatas
In the case of B1, the “promoter activity relative to CaMV 35S promoter” value is given as “at least 30 fold”.
